This test concerns the target growth factor receptors. Description: cell-based or functional assay.
With VVPKPSSAPTQLEPISILYL [SEQ ID NO: 59], the p-Smad1/5/8 (%) (quantification of western blots of phospho-smad1/5/8) was 29%.
With NDEGLESVPTEERSVKVAKV [SEQ ID NO: 63], the p-Smad1/5/8 (%) (quantification of western blots of phospho-smad1/5/8) stood at 34%.
As to SSVKSQPSRVHHKPLSMLYV [SEQ ID NO: 62], the p-Smad1/5/8 (%) (quantification of western blots of phospho-smad1/5/8) turned out to be 31%.
Turning to NDEGLESVPTEESAISMLYL [SEQ ID NO: 56], the p-Smad1/5/8 (%) (quantification of western blots of phospho-smad1/5/8) is 28%.
With SIPKASSTPTELSPINMLYF [SEQ ID NO: 54], the p-Smad1/5/8 (%) (quantification of western blots of phospho-smad1/5/8) worked out at 32%.
As to ASASPSSVSQDLSSLSILFF [SEQ ID NO: 58], the p-Smad1/5/8 (%) (quantification of western blots of phospho-smad1/5/8) was found to be 37%.
Consider SSVKSQPSRVHHSPISILFI [SEQ ID NO: 57], for which the p-Smad1/5/8 (%) (quantification of western blots of phospho-smad1/5/8) was 41%.

The values above are taken from patent US20250388633A1.
